# Literature values in paper PMC4191058.
# Molecular target: NS1 (Influenza A virus) (UniProt Q8QPI8)
substance,measurement,value
NS1 (from UniProt Q8QPI8),Kd,90 µM
